Experimental data as given in paper PMC9482650, “Quantitative fragmentomics allow affinity mapping of interactomes” (Nature Communications, 2022).

Legend:
Assay in all cases: holdup assay
Design in all cases: key: below the threshold = too weak to quantify, mostly under pKd 3.1 to 4
Settings in all cases: plain residues with an end cap or a label only (N-terminal biotin on a linker: ado-ado)
[1] = target: AHNAK1, Q09666
[2] = target: T1, APBA1_2, Q02410
T1 sequence (Q02410 742-832, limits assumed, looked up): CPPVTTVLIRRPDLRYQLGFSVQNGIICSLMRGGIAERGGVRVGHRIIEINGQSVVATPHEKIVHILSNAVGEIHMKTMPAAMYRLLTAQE

[3] = target: T2, APBA3_1, O96018
T2 sequence (O96018 389-490, limits assumed, looked up): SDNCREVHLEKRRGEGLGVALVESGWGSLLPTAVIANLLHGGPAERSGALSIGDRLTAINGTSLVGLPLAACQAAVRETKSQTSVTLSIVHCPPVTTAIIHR

[4] = target: T3, DFNB31_1, Q9P202
T3 sequence (Q9P202 135-233, limits assumed, looked up): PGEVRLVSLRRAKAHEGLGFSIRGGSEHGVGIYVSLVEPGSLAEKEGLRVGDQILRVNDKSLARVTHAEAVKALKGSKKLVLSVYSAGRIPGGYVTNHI

[5] = target: T4, DFNB31_3, Q9P202
T4 sequence (Q9P202 811-907, limits assumed, looked up): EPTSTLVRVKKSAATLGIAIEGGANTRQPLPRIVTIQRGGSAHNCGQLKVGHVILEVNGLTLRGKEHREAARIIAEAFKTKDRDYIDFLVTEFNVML

[6] = target: DLG1_1, Q12959
[7] = target: DLG4_2, P78352
[8] = target: DLG4_3, P78352
[9] = target: DLG5_1, Q8TDM6
[10] = target: FRMPD2_3, Q68DX3
[11] = target: GRID2IP_1, A4D2P6
[12] = target: GRID2IP_2, A4D2P6
[13] = target: T5, GRIP1_3, Q9Y3R0
T5 sequence (Q9Y3R0 247-346, limits assumed, looked up): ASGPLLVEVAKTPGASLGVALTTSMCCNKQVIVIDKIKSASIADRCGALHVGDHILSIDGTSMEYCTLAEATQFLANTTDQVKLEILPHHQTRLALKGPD

[14] = target: T6, GRIP1_7, Q9Y3R0
T6 sequence (Q9Y3R0 999-1096, limits assumed, looked up): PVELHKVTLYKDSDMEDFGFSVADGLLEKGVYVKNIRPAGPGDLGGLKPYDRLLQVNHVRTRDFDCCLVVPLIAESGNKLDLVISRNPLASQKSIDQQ

[15] = target: Inadl_8, Q8NI35
[16] = target: MAGI1_1, Q96QZ7
[17] = target: MAGI1_2, Q96QZ7
[18] = target: T7, MPDZ_12, O75970
T7 sequence (O75970 1857-1958, limits assumed, looked up): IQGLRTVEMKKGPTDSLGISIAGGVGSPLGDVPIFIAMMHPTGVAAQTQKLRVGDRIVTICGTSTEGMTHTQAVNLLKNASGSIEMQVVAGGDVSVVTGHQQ

[19] = target: T8, MPP6, Q9NZW5
T8 sequence (Q9NZW5 125-219, limits assumed, looked up): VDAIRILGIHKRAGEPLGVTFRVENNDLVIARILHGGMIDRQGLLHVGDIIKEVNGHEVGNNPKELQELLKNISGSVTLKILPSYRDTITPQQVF

[20] = target: NHERF2_2, Q15599
[21] = target: T9, PDZD7_3, Q9H5P4
T9 sequence (Q9H5P4 857-944, limits assumed, looked up): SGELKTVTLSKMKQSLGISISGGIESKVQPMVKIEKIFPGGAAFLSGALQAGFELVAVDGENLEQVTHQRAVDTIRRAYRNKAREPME

[22] = target: PDZRN4_1, Q6ZMN7
[23] = target: T10, PTPN13_1, Q12923
T10 sequence (Q12923 1088-1188, limits assumed, looked up): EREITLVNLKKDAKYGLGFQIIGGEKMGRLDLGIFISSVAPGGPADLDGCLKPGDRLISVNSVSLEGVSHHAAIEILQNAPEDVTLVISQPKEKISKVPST

[24] = target: T11, SHANK1, Q9Y566
T11 sequence (Q9Y566 658-767, limits assumed, looked up): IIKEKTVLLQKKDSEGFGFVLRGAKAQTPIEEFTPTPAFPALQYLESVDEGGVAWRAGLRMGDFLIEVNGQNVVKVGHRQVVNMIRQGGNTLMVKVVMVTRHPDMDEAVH

[25] = target: T12, SYNJ2BP, P57105
T12 sequence (P57105 8-110, limits assumed, looked up): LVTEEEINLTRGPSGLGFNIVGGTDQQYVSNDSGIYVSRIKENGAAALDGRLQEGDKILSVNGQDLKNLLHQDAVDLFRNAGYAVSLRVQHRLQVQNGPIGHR

[26] = target: TJP1_3, Q07157
Sequence of TJP1_3, Q07157 (Q07157 416-512): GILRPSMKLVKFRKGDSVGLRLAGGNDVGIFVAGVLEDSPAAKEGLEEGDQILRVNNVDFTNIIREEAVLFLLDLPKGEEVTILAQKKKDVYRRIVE

Sequence of Inadl_8, Q8NI35 (Q8NI35 1425-1530): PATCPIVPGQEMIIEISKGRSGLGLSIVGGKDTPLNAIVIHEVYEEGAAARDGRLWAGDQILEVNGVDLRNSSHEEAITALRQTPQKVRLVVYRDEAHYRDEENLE
Sequence of GRID2IP_1, A4D2P6 (A4D2P6 1-87): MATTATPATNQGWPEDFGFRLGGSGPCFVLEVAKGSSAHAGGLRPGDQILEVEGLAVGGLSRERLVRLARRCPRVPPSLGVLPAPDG
Sequence of DLG4_2, P78352 (P78352 155-259): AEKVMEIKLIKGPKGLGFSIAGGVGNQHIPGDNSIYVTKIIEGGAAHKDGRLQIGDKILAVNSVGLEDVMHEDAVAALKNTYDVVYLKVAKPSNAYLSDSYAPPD
Sequence of MAGI1_1, Q96QZ7 (Q96QZ7 1-106): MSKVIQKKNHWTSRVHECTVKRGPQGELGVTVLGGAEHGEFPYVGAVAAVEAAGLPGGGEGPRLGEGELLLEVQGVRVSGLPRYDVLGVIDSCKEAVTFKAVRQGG
Sequence of AHNAK1, Q09666 (Q09666 4-100): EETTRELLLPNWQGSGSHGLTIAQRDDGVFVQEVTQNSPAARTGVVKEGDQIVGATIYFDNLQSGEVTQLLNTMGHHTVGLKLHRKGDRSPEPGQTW
Sequence of DLG5_1, Q8TDM6 (Q8TDM6 617-713): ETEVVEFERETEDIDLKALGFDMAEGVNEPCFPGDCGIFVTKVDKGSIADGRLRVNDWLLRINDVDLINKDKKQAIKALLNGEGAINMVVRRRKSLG
Sequence of DLG4_3, P78352 (P78352 306-403): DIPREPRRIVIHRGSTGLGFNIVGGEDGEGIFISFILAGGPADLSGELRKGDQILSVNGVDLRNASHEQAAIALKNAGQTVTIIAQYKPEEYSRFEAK
Sequence of GRID2IP_2, A4D2P6 (A4D2P6 272-370): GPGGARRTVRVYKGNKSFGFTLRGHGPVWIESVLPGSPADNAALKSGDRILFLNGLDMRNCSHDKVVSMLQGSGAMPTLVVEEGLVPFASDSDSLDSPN
Sequence of MAGI1_2, Q96QZ7 (Q96QZ7 456-580): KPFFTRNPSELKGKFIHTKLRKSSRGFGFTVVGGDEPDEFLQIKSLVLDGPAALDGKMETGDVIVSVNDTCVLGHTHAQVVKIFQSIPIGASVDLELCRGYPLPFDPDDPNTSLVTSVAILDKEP
Sequence of PDZRN4_1, Q6ZMN7 (Q6ZMN7 213-318): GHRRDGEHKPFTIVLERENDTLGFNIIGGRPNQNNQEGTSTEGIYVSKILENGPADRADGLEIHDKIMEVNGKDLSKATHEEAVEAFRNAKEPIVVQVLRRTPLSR
Sequence of FRMPD2_3, Q68DX3 (Q68DX3 1073-1166): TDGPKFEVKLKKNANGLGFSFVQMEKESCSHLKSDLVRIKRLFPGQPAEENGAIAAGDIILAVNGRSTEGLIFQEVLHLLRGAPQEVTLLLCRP
Sequence of NHERF2_2, Q15599 (Q15599 142-238): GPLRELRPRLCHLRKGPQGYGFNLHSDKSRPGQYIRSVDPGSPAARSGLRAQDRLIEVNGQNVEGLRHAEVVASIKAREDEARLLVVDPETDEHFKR

VISSDDLTEL [CAPN6, Q9Y6Q1]
pKd [1]: below the threshold | pKd [2]: 3.79 | pKd [3]: below the threshold | pKd [4]: 3.56 | pKd [5]: 4 | pKd [6]: below the threshold | pKd [7]: below the threshold | pKd [8]: below the threshold | pKd [9]: below the threshold | pKd [10]: below the threshold | pKd [11]: below the threshold | pKd [12]: 4.34 | pKd [13]: below the threshold | pKd [14]: below the threshold | pKd [15]: below the threshold | pKd [16]: below the threshold | pKd [17]: below the threshold | pKd [18]: below the threshold | pKd [19]: below the threshold | pKd [20]: 4.28 | pKd [21]: 3.87 | pKd [22]: below the threshold | pKd [23]: below the threshold | pKd [24]: 4.84 | pKd [25]: below the threshold | pKd [26]: below the threshold

RGKNRRQSIF [CDK18, Q07002]
pKd [1]: below the threshold | pKd [2]: 3.47 | pKd [3]: below the threshold | pKd [4]: below the threshold | pKd [5]: 3.65 | pKd [6]: below the threshold | pKd [7]: 3.75 | pKd [8]: 3.7 | pKd [9]: below the threshold | pKd [10]: below the threshold | pKd [11]: below the threshold | pKd [12]: below the threshold | pKd [13]: below the threshold | pKd [14]: below the threshold | pKd [15]: below the threshold | pKd [16]: below the threshold | pKd [17]: 3.91 | pKd [18]: 3.58 | pKd [19]: below the threshold | pKd [20]: below the threshold | pKd [21]: below the threshold | pKd [22]: below the threshold | pKd [23]: below the threshold | pKd [24]: below the threshold | pKd [25]: below the threshold | pKd [26]: below the threshold

AKADAQESRL [PLCB2, Q00722]
pKd [1]: below the threshold | pKd [2]: below the threshold | pKd [3]: below the threshold | pKd [4]: 4.11 | pKd [5]: below the threshold | pKd [6]: below the threshold | pKd [7]: below the threshold | pKd [8]: below the threshold | pKd [9]: below the threshold | pKd [10]: below the threshold | pKd [11]: below the threshold | pKd [12]: 3.86 | pKd [13]: below the threshold | pKd [14]: below the threshold | pKd [15]: below the threshold | pKd [16]: below the threshold | pKd [17]: below the threshold | pKd [18]: below the threshold | pKd [19]: below the threshold | pKd [20]: 5.19 | pKd [21]: 4.29 | pKd [22]: 4.5 | pKd [23]: below the threshold | pKd [24]: 4.33 | pKd [25]: 3.97 | pKd [26]: below the threshold

NKSEPFLTWL [WWTR1, Q9GZV5]
pKd [1]: below the threshold | pKd [2]: 4.89 | pKd [3]: 3.5 | pKd [4]: 3.85 | pKd [5]: 5.34 | pKd [6]: below the threshold | pKd [7]: 3.54 | pKd [8]: below the threshold | pKd [9]: below the threshold | pKd [10]: below the threshold | pKd [11]: below the threshold | pKd [12]: 4.65 | pKd [13]: below the threshold | pKd [14]: below the threshold | pKd [15]: below the threshold | pKd [16]: 3.69 | pKd [17]: 3.51 | pKd [18]: 4.9 | pKd [19]: 3.9 | pKd [20]: 5.27 | pKd [21]: 5.12 | pKd [22]: 4.27 | pKd [23]: 3.66 | pKd [24]: 5.29 | pKd [25]: 4.52 | pKd [26]: below the threshold

THHRKIHTRV [ZNF599, Q96NL3]
pKd [1]: below the threshold | pKd [2]: 3.62 | pKd [3]: below the threshold | pKd [4]: 3.82 | pKd [5]: below the threshold | pKd [6]: 5.07 | pKd [7]: 5.64 | pKd [8]: 4.38 | pKd [9]: 3.72 | pKd [10]: 3.53 | pKd [11]: 3.6 | pKd [12]: 3.8 | pKd [13]: below the threshold | pKd [14]: below the threshold | pKd [15]: 4.38 | pKd [16]: 3.58 | pKd [17]: 4.96 | pKd [18]: below the threshold | pKd [19]: below the threshold | pKd [20]: below the threshold | pKd [21]: 4.53 | pKd [22]: below the threshold | pKd [23]: below the threshold | pKd [24]: 4.01 | pKd [25]: 4.32 | pKd [26]: below the threshold
